Common to all, as to test: ELISA, antigen coated at 5 µg/ml, mAb 10 µg/ml
(ELISA stands for enzyme-linked immunosorbent assay.)

For test [1], the target named is T1, BSA (UniProt P02769 25-607).
T1 construct: also called BSA (negative control)
The method, then: (§1) To evaluate the cross-reactivity of the mAb to other members of the TAM receptor tyrosine kinase subfamily, binding of the mAb to rhAXL-ECD, rhMER-ECD, rhTyro-3 and BSA (negative control) was measured by ELISA. 96-w half-area plates (Costar) were coated with 25 μl of rhAXL-ECD, rhMER-ECD, rhTyro-3 or BSA at 5 μg/ml in PBS and incubated overnight at 4° C. Microplates were washed 3 times with PBS, blocked with PBS-BSA 1%, and 25 μl of a 10 μg/ml diluted in PBS-BSA 1% were added and incubated at 37° C., 5% CO₂ for 2 hours. Plates were washed 4 times with PBS-TWEEN™ 20 0.05% and incubated for one hour at 37° C., 5% CO₂ with 25 μl of secondary antibody alkaline phosphatase conjugated F(ab)′2 goat anti-mouse IgG (H+L) (Jackson Immunoresearch) diluted 1/5000 in blocking buffer. After 4 washes with PBS-Tween 20 0.05%, 25 μl of a 1 mg/ml pN PP substrate solution was added and further incubated for one hour at 37° C. OD405 nm measurements were done using a microplate reader (Spectramax 340 PC, Molecular Devices).

For test [2], the target named is T2, recombinant human AXL extracellular domain, C-terminally His8-tagged (rhAXL-ECD) (human, UniProt P30530 26-451).
T2 construct: Made in CHO cells; also called (rh)AXL-ECD His8; human AXL ECD
T2 sequence: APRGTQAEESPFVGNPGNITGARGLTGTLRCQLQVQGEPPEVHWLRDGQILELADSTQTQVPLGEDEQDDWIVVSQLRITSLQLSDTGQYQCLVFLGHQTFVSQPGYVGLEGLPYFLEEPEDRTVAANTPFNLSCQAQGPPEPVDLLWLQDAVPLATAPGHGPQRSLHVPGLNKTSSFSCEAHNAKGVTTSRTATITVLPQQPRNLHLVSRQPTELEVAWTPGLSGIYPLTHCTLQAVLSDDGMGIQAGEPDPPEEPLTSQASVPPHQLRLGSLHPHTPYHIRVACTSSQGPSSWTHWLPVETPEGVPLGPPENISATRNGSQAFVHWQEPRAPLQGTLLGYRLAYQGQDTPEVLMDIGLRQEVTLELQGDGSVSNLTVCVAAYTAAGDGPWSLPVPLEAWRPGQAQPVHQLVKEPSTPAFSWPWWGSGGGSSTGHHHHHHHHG
Here is the method:
as §1

In test [3] the target is T3, rhTyro-3 (human, UniProt Q06418 41-429).
T3 construct: extracellular domain
T3 sequence (looked up): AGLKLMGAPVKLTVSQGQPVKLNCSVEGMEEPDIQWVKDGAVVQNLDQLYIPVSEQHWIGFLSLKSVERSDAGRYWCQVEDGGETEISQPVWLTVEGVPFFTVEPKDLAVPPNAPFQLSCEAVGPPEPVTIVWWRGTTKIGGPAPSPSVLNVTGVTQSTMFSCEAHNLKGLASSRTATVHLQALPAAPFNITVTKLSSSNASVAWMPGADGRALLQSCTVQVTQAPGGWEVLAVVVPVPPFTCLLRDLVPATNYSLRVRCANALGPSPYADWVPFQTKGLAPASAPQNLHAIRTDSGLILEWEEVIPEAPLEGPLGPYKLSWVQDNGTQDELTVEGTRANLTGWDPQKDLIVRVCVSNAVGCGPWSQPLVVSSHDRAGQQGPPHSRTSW
Here is the method: as §1

Test [4] deals with T4, rhMER-ECD (human, UniProt Q12866 21-505).
T4 construct: extracellular domain
T4 sequence (looked up): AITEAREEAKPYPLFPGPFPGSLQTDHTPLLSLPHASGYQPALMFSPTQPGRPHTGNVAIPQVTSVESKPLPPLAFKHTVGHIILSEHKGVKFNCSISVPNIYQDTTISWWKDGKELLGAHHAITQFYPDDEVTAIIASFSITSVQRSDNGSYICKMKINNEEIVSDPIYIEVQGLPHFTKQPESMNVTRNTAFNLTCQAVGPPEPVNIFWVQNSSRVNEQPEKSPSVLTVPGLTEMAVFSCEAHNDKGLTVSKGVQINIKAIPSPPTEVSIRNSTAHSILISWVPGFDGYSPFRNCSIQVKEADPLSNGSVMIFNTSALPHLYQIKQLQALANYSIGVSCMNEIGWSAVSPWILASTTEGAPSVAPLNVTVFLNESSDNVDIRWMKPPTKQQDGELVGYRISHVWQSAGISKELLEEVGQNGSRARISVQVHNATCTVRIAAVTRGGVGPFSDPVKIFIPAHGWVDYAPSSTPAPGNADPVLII
The method, then:
as §1

T1 sequence (P02769 25-607 limits assumed): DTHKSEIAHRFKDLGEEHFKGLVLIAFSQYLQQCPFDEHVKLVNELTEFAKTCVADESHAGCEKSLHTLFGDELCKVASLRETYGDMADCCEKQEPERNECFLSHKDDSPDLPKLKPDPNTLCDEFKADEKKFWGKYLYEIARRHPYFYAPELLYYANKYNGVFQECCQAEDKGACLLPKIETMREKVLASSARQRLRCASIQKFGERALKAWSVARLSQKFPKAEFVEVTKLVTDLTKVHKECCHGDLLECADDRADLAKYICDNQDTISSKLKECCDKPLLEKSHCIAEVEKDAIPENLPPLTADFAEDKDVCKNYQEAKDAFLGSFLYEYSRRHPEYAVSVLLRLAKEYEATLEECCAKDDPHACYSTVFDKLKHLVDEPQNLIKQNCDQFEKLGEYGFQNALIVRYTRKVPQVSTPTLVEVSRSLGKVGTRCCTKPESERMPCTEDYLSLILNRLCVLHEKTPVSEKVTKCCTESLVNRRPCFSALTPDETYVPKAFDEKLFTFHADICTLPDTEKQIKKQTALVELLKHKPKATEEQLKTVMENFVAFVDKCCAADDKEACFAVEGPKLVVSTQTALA

B1: F107-10G1 (antibody, V domains shown)
VH: EVNLVESGGGVVKPGASLKLSCEASGFTFSNYGMSWVRQTSDKRLEWVASISGGGGRTYYLDNVKGRFIISRENAKNTLYLQMSSLKSEDTALFYCARGARASYFAMDYWGQGSSVTVSS
VL: VIVMTQSHKFMSTSVGDRVSITCKASQDVTTAVAWYQQKPGQSPKLLIYWASTRHTGVPDRFTGSGSGTDYSLTISNVQTEDLAFYYCQQHFTTPLTFGAGTKLELK
notes: also called F107-10G1-3
In the case of B1, the OD405 nm in test [1] came to 0 OD405; in test [2], 1.76 OD405; in test [3] it was 0 OD405; in test [4], 0 OD405.

B2: F111-3C8 (antibody, V domains shown)
VH: QVQLQQPGAELGKPGTSVKLSCKASGYTFTSYWMHWVKRVPGQGLEWIGNINPNSTSADYNEKFKRKATLTVDKSSSTAYMQLSTLTSEDSAVYYCTRPLMGPYWYFDVWGTGTTVTVSS
VL: QIVLTQSPAIMSASPGEKVTISCSASSSVSYMYWYQQKPGSSPKPWIYRTSNLASGVPARFSGSGSGTSYSLTISSMEAEDAATYYCQQYHNYPPTFGGGTKLEIK
notes: also called F111-3C8-2
In the case of B2, the OD405 nm in test [1] was determined as 0 OD405; in test [2] it was 2.3 OD405; in test [3], 0 OD405; in test [4], 0 OD405.

B3: F107-8D12 (antibody, V domains shown)
VH: QVQLQQPGAELVKPGASVQLSCKASGYTFISFWINWVKQRPGQGLEWMGNIFPGSSSTNYNEKFKSKATLTVDKSSSTAYMQLSSLTSEDSAVYFCARDYYGGSPDYWGQGTTLTVSS
VL: DIVMSQSPSSLAVSAGERVTMSCKSSQSLLNTRTRKNYLAWYQQKPGQSPKLLIYWASTRESGVPDRFTGSGSGTDFTLTISSVQAEDLAVYYCKQSYNLWTFGGGTKLEIK
notes: also called F107-8D12-2; mAb 8D12
For the molecule B3, the OD405 nm in test [1] worked out at 0 OD405; in test [2], 2.59 OD405; in test [3] it was 0 OD405; in test [4], 0 OD405.

B4: F107-7H5 (antibody, V domains shown)
VH: QVQLQQPGAELVKPGASVKLSCKASGYTFTSYWINWVKQRPGQGLEWIGNIYPDSSSTNYNEKFKSKATLTVDKSSTTAYIQFSSLTSEDSAVYYCTRDTYGGSPDYWGQGTTLTVSS
VL: DIVMSQSPSSLAVSAGEKVTMSCKSSQSLLNSRTRKIYLAWYQQKPGQSPKLLIYWASTRQSGVPDRFTGSGSGTDFTLTISSVQAEDLAVYYCKQSYNLWTFGGGTKLEIK
notes: also called F107-7H5-2; mAb 7H5
Consider B4, for which the OD405 nm in test [1] is 0 OD405; in test [2], 2.4 OD405; in test [3] it was 0 OD405; in test [4], 0 OD405.

B5: F111-5E9 (antibody, V domains shown)
VH: QIQLVQSGPELKKPGETVKISCKASGYTFTKYGMNWVKQAPGKGLKWMGWINTYTGEPTYADDFKGRFAFSLETSASTAYLQINNLTTEDMVTYFCAKGGYYSNPIYPMDYWGQGTSVTVSS
VL: DIQMTQTTSSLSASLGDRVTISCRASQDINNYLNWYQQKPDGTVKLLIYYISRLHSGVPSRFSGSGSGTDYSLTISNLELEDVATYFCQQGNTLPFTFGSGTKLEIK
notes: also called F111-5E9-2; mAb 5E9
Consider B5, for which the OD405 nm in test [1] turned out to be 0 OD405; in test [2], 1.36 OD405; in test [3] it was 0 OD405; in test [4], 0 OD405.

For the origin of these results see patent publication US20240076389A1 (NATIONAL RESEARCH COUNCIL OF CANADA, published 2024).
